Data: publication PMC2928128
pKd: −log10 of the molar value.

What was measured:
Assay in all cases: SPR
[1] = target: GST-CDH23 + exon68 (cytoplasmic region of cadherin-23 including the exon68-encoded sequence, residues 847-1114)
[2] = target: GST-CDH23Δexon68ΔITEL (residues 847-1075)
[3] = target: GST-CDH23 + exon68ΔITEL (residues 847-1110)
[4] = target: GST-CDH23Δexon68 (cytoplasmic region of cadherin-23 lacking the exon68-encoded sequence, residues 847-1079)

Measured: pKd

Chain of harmonin-a PDZ3 domain (residues 434-545) (domain or fragment) (Q9ES64 434-545): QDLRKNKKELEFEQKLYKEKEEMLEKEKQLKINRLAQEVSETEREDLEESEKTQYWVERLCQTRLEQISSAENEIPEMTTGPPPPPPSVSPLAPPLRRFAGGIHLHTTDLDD

harmonin-a PDZ3 domain (residues 434-545) (domain or fragment)
< 5.30: [1] | [2] | [3] | [4]
